In assay [1] the target is T1, F-actin from chicken breast muscle (chicken (endogenous in breast muscle), UniProt P68139 1-377). Briefly: co-sedimentation.
For assay [2], the target named is T1, F-actin from chicken breast muscle. Briefly: cell-based or functional assay.

B1: 110-kD protein-calmodulin complex of the intestinal microvillus (complex)
chain 1: MEATTSLLDAAAVGDLVMLDPLSEESLLRTLQERFSRGEIYTYIGEVVISVNPYKPLPIYTPEKVEEYHNCNFFAVKPHIYAIADDAYRSLRDRDRDQCILITGESGAGKTEASKLVMSYVAAVSSKGEEVDKVKEQLLQSNPVLEAFGNAKTIRNDNSSRFGKYMDVEFDFKGDPLGGVISNYLLEKSRIVRHVKGERNFHIFYQLLAGGSAQLLQQLKLRPDCSHYGYLNHEKSVLPGMDDAANFRAMQDAMAIIGFAPAEVTALLEVTAVVLKLGNVKLSSCFQASGMEASSITEPRELQEISQLIGLDPSTLEQALCSRTVKVRDESVLTALSVSQGYYGRDALAKNIYSRLFDWLVNRINTSIQVKPGKQRKVMGVLDIYGFEIFQDNGFEQFIINYCNEKLQQIFILMTLKEEQEEYVREGIQWTPVEFFDNSIICDLIENSKVGILAMLDEECLRPGTVNEDTFITKLNQIFASHKRYESKETLNAKHVTDVSLPLRCFRIHHYAGKVTYNVTGFIEKNNDLLFRDLSQAMWAARHTLLRSLFPEGDPQRPSLKLPPTTGSQFKASVATLMKNLYSKNPNYIRCIKPNDTKTAMLFTPDLVLAQVRYLGLMENVRVRRAGYAFRQLYQPFLERYKMLSRKTWPRWTGGDREGAEVLLAELKFPPEELAYGHTKIFIRSPRTLFDLEKRRQQRVAELATLIQKMFRGWCCRKRYQLMRKSQILISAWFRGHMQRNRYKQMKRSVLLLQAYARGWKTRRMYRRYFRSDACTRLSNFIYRRMVQKYLMGLQKNLPPMAVLDRTWPPAPYKFLSDANQELKSIFYRWKCKKYREQLTPQQRAMLQAKLCASELFKDKKALYAQSLQQPFRGEYLGLTQNRKYQKLQAVAKDKLVMAEAVQKVNRANGKTVPRLLLLTTEHLVLADPKAAQPKMVLSLCDIQGASVSRFSDGLLALHLKETSTAGGKGDLLLVSPHLIELVTRLHQTLMDATAQALPLSIADQFSTRFPKGDVAVTVVESAKGGGDVPVCKKRGSHKMEILVH
chain 2: […]
As to B1, the “mass ratio of 110K-CM to actin at apparent saturation” value in assay [1] is ~20 110K-CM:actin by mass. Moreover, the “actin activation of the MgATPase activity of 110K-CM, F-actin 0.1 to 60 uM, 35C” value in assay [2] lay in the range of 2.5 to 3.5 fold.

For the origin of these results see paper PMC2114910 (The Journal of Cell Biology, 1987).
